Laboratory results: the DeepSol protein solubility set

Assay: soluble on expression in E. coli; label from the status in PepcDB or PDB records

Question: Which “soluble on expression in E. coli” value does the source give for “MGSDKIHHHHHHMQQLTKPKKIAIIGAGFRGITAAKIFQDAGIEFVILDKNDATGGVWRTFANQSSYVQIPEPEYRFDMDYPNGLPSEFTPRDEILAHAERFINVHGIGKHIIFKSEVFSIEDISDSKYRVYYKHDNANKSLEVDGIYYAGGRLHKRRTVHFPGEKNFQGLIRYGISDDMPISEYRGKKVAIIGCGAFAMENARTALLNGATHVTIIAKTINIVLPRMVMFWLNSMRLAPVAPLLKMSWKMYDWAGTNFMKENLDGFSINQRTVPIISDFIFLAHKVGKAEFKKDSIDFIDSNSVVTSDGTKIEADIILKCVGFEGQMDVFKQVYPPFEAVNWIWVNKKTNFVLDQDPEFGMTTKATKLMTSGSTLLLTKIAARVFAMSLINPSKFEQIIPVLPTSQNAGYNISYHMGSLSKLLVANKDIKKFILRTSAKKSKSMIEKGGNGKYLEFCKREWKQQCEALGVEEVEYPFVFPWWILLWENWQQLVNRFFLAAFPEQNIVRDIQPEDVEWSFISAES” here?
Answer: not soluble

Question: For “MGVQTHVLELTSSVSAEKIFQGFVIDVDTVLPKAAPGAYKSVEIKGDGGPGTLKIITLPDGGPITTMTLRIDGVNKEALTFDYSVIDGDILLGFIESIENHVVLVPTADGGSICKTTAIFHTKGDAVVPEENIKYANEQNTALFKALEAYLIAN”, which “soluble on expression in E. coli” value is on record?
Answer: soluble

Question: Which “soluble on expression in E. coli” value does the source give for “MRDIMSSPPITTLPMTSVKEAAKIMLENRVGSLIVVNERNTLLGILTKTDIIREVVAKGLDPESVRVGDIMTRNPYYVYTDDSVERAASLMGEHNIGHLPVLDPETEKPVGIVTKTDIVKLAPNYINVIYSLKQEIDRRERLKRIRK” here?
Answer: soluble

Question: For “MLCASAEVEVFYDTDNNRKSDPAVFWQNPLNRSKFPLLSQIANRYLTTPASSAESERVFSGAGRVSTKLRRKMSTKSLSKSVFLQQNQKVLGFKIGLD”, which “soluble on expression in E. coli” value is on record?
Answer: not soluble

Question: With “MGHHHHHHGGHMSLVRITWCPGCGNFAILKAFERASRRVIEEGFDIAVSSGIGCHGKISDYLSLPGFHVIHGRVPPFLTGLKLANPNLVVVGFSGDGDGLNEGVEHLVHAARRNTDITIILHNNGVFGLTTGQVTATSPRGRKSRSTPRGNPEYPLNPCHLMLVSGATFVARVFAGEQERLSEVFYNAMKHKGFSFVEVMQPCVSFNNFWEMRKEIYWIERSSDLLEAMKNCSDAKACGIFYAEEKETYEDAVWKSTFEGGS” as the sequence, how does the “soluble on expression in E. coli” value read?
Answer: soluble

Question: With “MSLDLREYSTDHQKIKRIEFNCKSKNNTLDGLLTPEEIVAEAKRQGHSAVGISDYNSIFSFPEFYYAAKANNIKPIYGAGFAMLEDTNGAFLTEFQNQDLITGRYVVFDIETTSLSAYHGEIIEFAATIIENKAVVDKVDIFIKSKEKLSHFTTRLTSITNEMLDQKGIELKEALQKIYDVMNNNVAVAHNANFDYNFLIEKFDQNNMQAPKCTFIDSLVVSRILFEHRDKHNLNEFCRNMSVNYDTEKAHRALYDTEVLADAWIEATLKMKDIKQISNFQELSEYKSDALFSKYFSLYINTVVKNQAGLKELFQLVSIANTKTFYGAPKIFWSTLKSFKNILVGSNGVQGELFDIMMLSSRQRVEKYIQKLDYIEIPHPDLFDSYLDRNQLTKDQLLESLQILISLAKKHNKLIISTAEPRYRHKGDREIFKVLTSFPIRDKRHFLWNYKAVKAGNYSVPNFYFLTTDEMLDAFSFLKDKSLIEDIVVNNAHKLNNLIDENIEVIKTDLYPPSIKNSSELLKDLVYKNAKKKYGEVLPKLVQDRIDKELIPIINYKFDVVYWISHILVKKANDDGYVVGSRGSVGSSLIANLINITEVNPLEPHYICDNCKHFEVVNNDKITSGYDLDDKNCPNCDSIMDKDGHSIPFETFLGFKADKVPDIDLNFSGEYQIAIHNYTRELFGEDKTFRAGTVSSIQYRKAFGFIKKYIEDTNTFYSNGFIDYLAEKCIDVKVTTGKHAGGIVVLPENLDIEEFTPVNYASDGLEDKEWKTTHFKYDFLKENLLKLDLLGHSDPTQIRFLEQATGLLSKNIPKKDKNLLKLFSSTEPMEIDPNDINGETTGAIALPEFGTKFTREIIKTSKPHLFADLISISGLSHGQNVWKNNAEDLILNENKTLNEIVCCRDDIMNYLIKKGVDASLSFKVTESVRKGKGVDSEDIKILSTYNIPDWFFDSMQKIKYMFPRAHAVAYVIMAWRMGYYKLYYPLEFYASFFSVKCSKFDLSAMIDFSKDGYWKIKNKIEEIEKLIRTNNKKDNKKEEDILESLNVALEMYSRGFTIQNIDIEKSDAYNWIIDKDSKSLIPPFSALDGIEAGAIKIINARKERPFKTVLDFAKRSGVSSTIVEKLKELNVFKDLPESEQLSLFGEGHHHHHH” as the sequence, how does the “soluble on expression in E. coli” value read?
Answer: soluble

Question: With “MGSDKIHHHHHHMRYVILARNLDSKAGGISVYGRNLIKKLEAKGIDVIISPKEKFSYFKWLLFDVPIFILKTDADVYHAIGIIEGILLPFIKPRAKKYLTVHDLIPLKYKGRGFRKILERFLVRLGLFSARFYDKIFAVSHLTKLDVIRFGGIDENKIEVVYQPIDDKFLKTPTSGKRHKTFNIGYISRMEAYKRHELLIKLFMKYKNPNARLYLAGTGPLFKKIQKLAEEDKRIILLGFVPDDKIVEFYDMLDVYIHPSKYEGWGLPIVEATARKKPVIIFEDAEIPREVKYLCLSIDFNIINPLISNLKYLKKVGVIKNKAWRRIYENSICH” as the sequence, how does the “soluble on expression in E. coli” value read?
Answer: not soluble

Question: For “AHHHHHHGSLVVKDLNVEYDNVKVLKGISFALNSGEKAIILGTNGAGKTTLLKSLLGLIPIKSGKIQICGKPYEKVVGEKKVSTNLESVYKLVYSIKVSELIDLYCDLKEIPSQQILNFIKEMKLEHILEKKFYNLSSGEKKCLTNLLAFFTDSKLILLDEPFEGLDPWRTNKTVEILNSLKSSIIMTTHRLDILSKFSTFKVYFLFNGHLYGPIRSASDLVNCYVTFSDIEEGESDIVLRIQGDKKNVILTRRPIGQKISDYASIDEIYRVMLE”, which “soluble on expression in E. coli” value is on record?
Answer: not soluble

Question: For “MGSDKIHHHHHHMGHDLPPLPSRDVHAVRWYVLSLPACHKGPAKGLKKELDRRVRLGEPTFDFFAPSFVEMRRREGHLVETHRPLLYNYVFIRSSVYEIFRLKRDFPLYNFLPSVDGRGSYPFVSDREMENLRWVARSYSDELPVYVPEAGYLRKGDRIRITDGRFKGVEASVVIQPGVGEREVMVCVDNWMWVPLLRVQPGEYEVISLAEEGKHVYTRLDNSRIQNGLHEALGRHWGSCGVTAADRELAAETLRTYGELQLDSAVMRCKLYSLLLPAYTILGDEERQKSLIGTIVSFLSLIRAEQSLALLLLTLYGCTDSSIYYYRAHELIDPWSRESSPKKSKLSLIRRLADYDRWLKHNE”, which “soluble on expression in E. coli” value is on record?
Answer: not soluble

Question: Which “soluble on expression in E. coli” value does the source give for “MMNVPEGFQPLFRSSPLLDLLGPFFCRQDAQRQLVVALRIDEKHCNHGGTAHGGLLSTLADVGLGYAMAFSREPPQPMVTVGLRLDFCGVARVGDWLEVHTRVDKLGQRMAFASARLHSGERLVASASGVFHLP” here?
Answer: not soluble

Question: Which “soluble on expression in E. coli” value does the source give for “FLKGGFDPKMNSKEALQILNLTENTLTKKKLKEVHRKIMLANHPDKGGSPFLATKINEAKDFLEKRGISK” here?
Answer: not soluble

Question: For “MKITSYVSFLYCLCLMLASPTVQASEVRTAIFEGKPCINPPHVVGNYPATPFLFYIPTSGERPIKWHAENLPKGLKLDKETGIIKGKVVEKGTYKVMLKAENALGTDTQELLINIGDELLLTPPMGWNSWNTFGRHLTEELLLQTADAMVENGMRDLGYAFINIDDFWQLPERGADGHIQIDKTKFPRGIKYVADYLHERGFKLGIYSDAADKTCGGVCGSYGYEEIDARDFASWGVDLLKYDYCNAPAGRVEAMERYEKMGRALRATDRSIVFSICEWGQREPWKWAKKVGGHLWRVSGDIGDLWNRSTDEKGGLRGILNILEINAPLSEYARPGGWNDPDMLVVGIGGKSKSIGYESEGCTNEQYQSHFALWCMMASPLLCGNDVRQMNDSTLQILLNKDLIAINQDPLGIQAERAIRADHYDVWVKPLSDGSKAIACLNRISGPVDVELNVKTVEGLSLDRVYDVIEGSLVAEASTGWVVKLAPGECKVFICKLEHHHHHH”, which “soluble on expression in E. coli” value is on record?
Answer: not soluble

Question: With “MLGMSYLRYVRIIGTVHVSPQSVKEVRNIILRENPDAVAVELDYGRLLSLLNGSSLTFSQAIKLGKIGILAYLLQGVEMALGKQVGVLPGSEMIEAFEVARSLGIPIYMIDMPIQVTLKRLFSVPIEEKIRGIIEIFLSIVYPKVELNLEDYISLELEFKRKYPTVYKILVEERNEFMARNLMRIVDILLERKKKIKIIAVVGLGHKRGIERILSHYSPKSIYLEHHHHHH” as the sequence, how does the “soluble on expression in E. coli” value read?
Answer: not soluble
